From US20240025993A1, “CD19 BINDING MOLECULES AND USES THEREOF” (NOVARTIS AG, priority 2020, published 2024)

B1: CD3hi TSP1C: TBM corresponding to CD3hi TSP1 but with a lysozyme binding arm in place of the CD19 binding arm; control antibody (antibody)
heavy: QVQLQQSGPGLVKPSQTLSLTCAISGDSVSSNSAAWSWIRQSPGRGLEWLGRIYYRSKWYNDYAVSVKSRITINPDTSKNQFSLQLNSVTPEDTAVYYCARLDHRYHEDTVYPGMDVWGQGTLVTVSSASTKGPSVFPLAPSSKSTSGGTAALGCLVKDYFPEPVTVSWNSGALTSGVHTFPAVLQSSGLYSLSSVVTVPSSSLGTQTYICNVNHKPSNTKVDKRVEPKSCGGGGSGGGGSEVQLVESGGGLVQPGGSLKLSCAASGFTFNTYAMNWVRQASGKGLEWVGRIRSKYNNYATYYADSVKDRFTISRDDSKSTLYLQMNSLKTEDTAVYYCVRHGNFGNSYVSWFAYWGQGTLVTVSSGGGGSGGGGSGGGGSGGGGSQAVVTQEPSLTVSPGGTVTLTCRSSTGAVTTSNYANWVQQKPGQAPRGLIGGTNKRAPWTPARFSGSLLGDKAALTLSGAQPEDEAEYFCALWYSNLWVFGGGTKLTVLGGGGSDKTHTCPPCPAPELLGGPSVFLFPPKPKDTLMISRTPEVTCVVVAVSHEDPEVKFNWYVDGVEVHNAKTKPREEQYASTYRVVSVLTVLHQDWLNGKEYKCKVSNKALAAPIEKTISKAKGQPREPQVCTLPPSREEMTKNQVSLSCAVKGFYPSDIAVEWESNGQPENNYKTTPPVLDSDGSFFLVSKLTVDKSRWQQGNVFSCSVMHEALHNHYTQKSLSLSPGK
light: DIELTQPPSVSVAPGQTARISCSGDNLPAYTVTWYQQKPGQAPVLVIYDDSDRPSGIPERFSGSNSGNTATLTISGTQAEDEADYYCASWDPSSGVVFGGGTKLTVLGQPKAAPSVTLFPPSSEELQANKATLVCLISDFYPGAVTVAWKADSSPVKAGVETTTPSKQSNNKYAASSYLSLTPEQWKSHRSYSCQVTHEGSTVEKTVAPTECS
chain: SQQIYGVVYGNVTFHVPSNVPLKEVLWKKQKDKVAELENSEFRAFSSFKNRVYLDTVSGSLTIYNLTSSDEDEYEMESPNITDTMKFFLYVLESGGGGSDKTHTCPPCPAPELLGGPSVFLFPPKPKDTLMISRTPEVTCVVVAVSHEDPEVKFNWYVDGVEVHNAKTKPREEQYASTYRVVSVLTVLHQDWLNGKEYKCKVSNKALAAPIEKTISKAKGQPREPQVYTLPPCREEMTKNQVSLWCLVKGFYPSDIAVEWESNGQPENNYKTTPPVLDSDGSFFLYSKLTVDKSRWQQGNVFSCSVMHEALHNHYTQKSLSLSPGK
B2: GADAPA-IgG1: anti-CD3 IgG1 with G237A/D265A/P329A (antibody)
heavy: EVQLVESGGGLVQPGGSLKLSCAASGFTFNTYAMNWVRQASGKGLEWVGRIRSKYNNYATYYADSVKDRFTISRDDSKSTLYLQMNSLKTEDTAVYYCVRHGNFGNSYVSWFAYWGQGTLVTVSSASTKGPSVFPLAPSSKSTSGGTAALGCLVKDYFPEPVTVSWNSGALTSGVHTFPAVLQSSGLYSLSSVVTVPSSSLGTQTYICNVNHKPSNTKVDKRVEPKSCDKTHTCPPCPAPELLGAPSVFLFPPKPKDTLMISRTPEVTCVVVAVSHEDPEVKFNWYVDGVEVHNAKTKPREEQYNSTYRVVSVLTVLHQDWLNGKEYKCKVSNKALAAPIEKTISKAKGQPREPQVYTLPPSRDELTKNQVSLTCLVKGFYPSDIAVEWESNGQPENNYKTTPPVLDSDGSFFLYSKLTVDKSRWQQGNVFSCSVMHEALHNHYTQKSLSLSPGK
light: QAVVTQEPSLTVSPGGTVTLTCRSSTGAVTTSNYANWVQQKPGQAPRGLIGGTNKRAPWTPARFSGSLLGDKAALTLSGAQPEDEAEYFCALWYSNLWVFGGGTKLTVLGQPKAAPSVTLFPPSSEELQANKATLVCLISDFYPGAVTVAWKADSSPVKAGVETTTPSKQSNNKYAASSYLSLTPEQWKSHRSYSCQVTHEGSTVEKTVAPTECS

Assays:
[1] = test system: T cells co-cultured with OCI-LY-19, Karpas422 or Toledo target cells; test: TBM and BBM mediated T cell proliferation (Example 20); format: cell-based, human; settings: OCI-LY-19, Karpas422, Toledo co-culture; E:T 1:3, 96 hrs, 2.5 nM-0.0006 nM; H variants
Method: Briefly, OCI-LY-19, Karpas422, and Toledo target cells stably expressing firefly luciferase were plated in a 96 well plate in T Cell Media (TCM) (RPMI-1640, ThermoFisher Scientific, Cat #11875-085), 10% FBS (Seradigm, Cat #1500-500), 1% L-Glutamine (Thermo Fisher Scientific, Cat #25830-081), 1% Non Essential Amino Acids (Thermo Fisher Scientific, Cat #11140-050),1% Pen/Strep (Thermo Fisher Scientific, Cat #15070063), 1% HEPES (Thermo Fisher Scientific, Cat #15630080), Sodium Pyruvate (Thermo Fisher Scientific, Cat #11360-070), 0.1% Beta-mercaptoethanol (Thermo Fisher Scientific, Cat #21985-023)]. PBMCs previously isolated and cryopreserved from 2 Leukopak donors were thawed and Pan T cells were isolated (as described earlier). Isolated T cells were labelled with 5 μM Cell Trace Violet (CTV) (Thermo Fisher Scientific, Cat #C34557) following the manufacturer's protocol and were co-cultured with target cells at an E:T ratio of 1:3. A dilution series of CD3med TSP1, CD3hi TSP1, CD3hi BSP1, CD3hi TSP1C, and blinatumomab ranging from 2.5 nM-0.0006 nM was added to cells and the plates were incubated in a 5% CO2, 37° C. incubator for 96 hrs. […]

[2] = Differential scanning calorimetry, melting temperature of Fc modified anti-CD3 antibodies (Example 35); format: physicochemical; settings: DSC, 1 mg/ml in PBS pH 7.4, anti-CD3 IgG1 Fc variants
Method: Calorimetric measurements were carried out on a differential scanning micro calorimeter (Nano DSC, TA instruments). The cell volume was 0.5 ml and the heating rate was 1° C./min. All proteins were used at a concentration of 1 mg/m in PBS (pH 7.4). The molar heat capacity of each protein was estimated by comparison with duplicate samples containing identical buffer from which the protein had been omitted. The partial molar heat capacities and melting curves were analyzed using standard procedure. Thermograms were baseline corrected and concentration normalized.

[3] = Aggregation propensity (% HMW) by analytical SEC of IgG1 anti-CD3 antibody and Fc variants (Example 35); format: physicochemical; settings: PBS pH 7.4, anti-CD3 antibodies
Method: Size exclusion chromatography measurements were performed to evaluate the aggregation propensity (% HMW) of IgG1 antibody and Fc modified derivatives. The produced and purified anti CD3 antibodies were applied to an analytical size exclusion chromatography column (SEC 200, GE Healthcare), equilibrated with PBS buffer pH 7.4.

human FcγR1A = human FcγR1A (Homo sapiens, UniProt P12314); test: SPR binding of Fc modified anti-CD3 IgG1 antibodies (Example 34); settings: anti-CD3 IgG1 antibody immobilized
Method: Surface plasmon resonance (SPR) experiments were performed to analyze the interaction of human activating receptors FcγR1A, FcγR3A (V158) and human C1q with IgG1 WT and antibody-Fc variants. Binding kinetics and their relative binding affinities were explored. The binding affinity is an important characteristic of an interaction between an antibody and an antigen. The equilibrium dissociation constant (KD) defines how strong the interaction is and therefore how much antibody-antigen complex is formed at equilibrium.
The knowledge of the antibody characteristics is not only essential during selection of the best therapeutic antibody candidate, but also important to understand the in vivo behavior and potentially predict cellular immune responses. […] Binding to human C1q was evaluated. […] SPR measurements were measured on a Biacore T200 (GE-Healthcare Life Sciences) controlled by Biacore T200 control software version 2.0.1. […]
The antibodies were covalently immobilized on a CM5 sensor chip whereas Fc gamma receptors or human C1q served as analytes in solution (FIG. 38). […] Zero concentration samples (blank runs) were measured for both methods to allow double-referencing during data evaluation.
Data were evaluated using the Biacore T200 evaluation software. […] In addition, the maximum response reached during the experiment was monitored. […]

[4] = test system: Jurkat NFAT luciferized (JNL) cells with THP-1 cells; test: Anti-CD3 NFAT signalling assay, JNL + THP-1 cells (Example 36); format: cell-based, human; settings: THP-1 cells preincubated with IFNg (100 u/mL, 48 hours)
Method: Jurkat reporter gene assay (RGA) for the nuclear factor of activated T-cells (NFAT) pathway was performed using Jurkat NFAT luciferized (JNL) cells and THP-1 cells (ATCC, TIB202). THP-1 cells express FcγRI, FcγRII, and FcγRIII. Cells were co-incubated for 6 hours at 37° C., 5% CO2 at a 5:1 effector to tumor ratio with each sample at the various concentrations depicted. An equal volume of ONE-Glo™ reagent (Promega, E6110) was added to the culture volume. Plate was shaken for 2 minutes, then incubated for an additional 8 minutes protected from light. For JNL+ THP+IFNg experiment, THP-1 cells were pre-treated with 100 u/mL IFNg for 48 hours at 37° C., 5% CO2 before co-culture. IFNg stimulation increases FcγRI expression. Luciferase activity was quantitated on the EnVision plate reader (PerkinElmer). Data was analyzed and fit to a 5 parameter-logistic curve using GraphPad Prism.

human FcγR1A, sequence (P12314 16-374): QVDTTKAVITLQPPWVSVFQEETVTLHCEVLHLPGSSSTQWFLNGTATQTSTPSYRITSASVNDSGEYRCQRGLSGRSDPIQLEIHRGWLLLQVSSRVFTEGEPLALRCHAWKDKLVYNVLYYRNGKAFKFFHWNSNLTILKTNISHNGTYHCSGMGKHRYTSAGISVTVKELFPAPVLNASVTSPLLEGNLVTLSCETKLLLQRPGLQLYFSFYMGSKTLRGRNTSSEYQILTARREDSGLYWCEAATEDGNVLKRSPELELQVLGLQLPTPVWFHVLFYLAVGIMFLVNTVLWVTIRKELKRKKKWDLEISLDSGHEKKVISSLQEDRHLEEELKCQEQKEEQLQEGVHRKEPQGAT

Molecule | T cell proliferation (% proliferated CD3+ T cells) [1] | Melting temperature (Tm) of CH2 domain [2] [°C] | (%) higher molecular weight [3] [%] | Maximum response at 100 nM hFcgammaRIA (RU) (human FcγR1A) | NFAT activity (T-cell activation) [4]
B1 | did not induce any T cell proliferation | – | – | – | –
B2 | – | 65 | 8.0 | 16 | some activity remaining
